Here are results for 13 molecules from US12247238B2, “Mogroside biocatalysis methods and products” (The Coca-Cola Company, priority 2019, dated 2025).

Assay type in all cases: biochemical
Data set [1] is described as follows: Standard mogroside biocatalytic assay, mogroside V substrate. Particulars: for Initial Rate / Reaction Progress / Sia 1: Mogroside hydrolysis; for Initial Rate / Reaction Progress / Sia 1 / Sia:MogIII / Sia:MogIV: 37 C., pH 5.6; for Reaction Progress / Sia 1 / Sia:MogIII / Sia:MogIV: 72 h; for Sia:MogIII / Sia:MogIV: product ratio. The protocol:
(§1) Standard mogroside biocatalytic assays were performed at 37° C. in 500 μL, volume 50 mM sodium citrate buffer pH 5.6, 10 mM magnesium chloride, 10 mM substrate (typically mogroside V) and 50 μg mL−1 enzyme, and incubated for 24-96 hours. Mogroside glucosidation activity was detected by direct HPLC detection and quantification of mogroside V substrate and mogroside products from filtered reaction supernatant, and quantified by comparison with standard curves based on peak.
(§2) Mogroside compounds HPLC separation and quantification was conducted using a Synergi Hydro-RP column (250 mm×4.6 mm or 150 mm×4.6 mm) with an initial flow rate of 1 mL min−1 and a water: acetonitrile gradient as per below, similar to that described by Zhou et al. (WO 2014/150127). Compounds were detected at 210 nm using diode array detector (Agilent Technologies, USA), and calibration curves established using standard curves from 0.1 to 10 mM.
(§3) Cells expressing enzyme variants grown in buffered minimal medium were induced for 72 hr with 1% methanol (refreshed every 24 hr), the culture supernatant harvested and assayed for standard ONPG activity over 30 minutes and mogroside V activity at pH 5.6, 37° C. for 72 hrs. The resultant activity data (Table 2) identified E200 and D258 as the likely catalytic pair for acid/base and nucleophilic attack of mogroside V by the A. oryzae β-glucosidase enzyme.

Data set [2] is described as follows: Reaction distributions (product ratios) of beta-galactosidase preparations. As to conditions: 12.8 g/L MG-V (10 mM), pH 6.0, 50° C., 96 hrs. The procedure:
as §2
Reaction distributions were evaluated for G5160 beta-galactosidase (Sigma), Maxilact A4 beta-galactosidase (DSM) and Pp-Aspergillus oryzae beta-galactosidase.
Using 12.8 g/L MG-V (10 mM) at pH 6.0, 50° C. for 96 hrs reaction time

The nature of data set [3]: β-galactosidase ONPG activity assay. Particulars: oNPG substrate, over 30 minutes. The procedure:
Standard β-galactosidase assays were performed at room temperature using o-nitrophenyl-β-D-galactopyranoside (ONPG, Sigma) as a substrate in […] with detection of o-nitrophenol release at 420 nm (UV-Spectra Max Spectrophotometer, Molecular Devices, USA). A typical reaction contained 50 mM sodium citrate buffer pH 5.6, 10 mM magnesium chloride and 100 mM potassium chloride with 2 mM ONPG and the desired amount of enzyme (usually […]). Partially purified AoBG (Sigma G5160, USA) was used as a positive control at a final concentration of 1 U mL−1. Vmax was calculated using the SpectraMax Plus software (Molecular Devices, USA) and when required kinetics were determined by varying the concentration of substrate and kinetic determinants calculated using Hyper™ (J. S. Easterby, Liverpool University).
as §3

Data set [4] can be described thus: Mogroside biocatalytic assay, equimolar MogV:SiaI substrate. Particulars: comparison of wildtype and variant. The protocol:
as §1, §2

Data set [5] is described as follows: RRK loop library variant screening, mogroside V substrate. As to conditions: second pass evaluation, 10 mM mogroside V, pH 5.6, 37° C., 72 hours. The procedure:
(§4) Single transformant colonies from 3.2.2 were inoculated into 2mL BMGY in 48 well-growth blocks and grown overnight at 30° C., 1000 rpm in a benchtop incubator before dilution of cell culture from each well into 2 mL BMM medium an equivalent well in a fresh growth block, to an OD600 nm of 1.0, and growing the induction growth blocks at 30° C., 1000 rpm in a benchtop incubator for 72 hours. The cells were then harvested (5000 g, 10 minutes) and the supernatant from each well concentrated using a 30 kDa cut-off Amicon Ultra 0.5 mL concentrator column (10 000 g, 5 minutes). Enzymatic assays were setup in fresh growth blocks to a total volume of 500 μL, comprising with 50 mM sodium citrate buffer pH 5.6, 10 mM magnesium chloride, 10 mM mogroside V and 50 μL concentrated supernatant (˜35 μg mL−1 protein). Assays were incubated without shaking at 37° C. for 72 hours. 190 μL of reaction was combined with 10 μL 10 mM internal standard (N-Boc-) and 5 μL analyzed by HPLC.
as §2, with “mM. 150 mm column retention times in minutes: mog V 9.5, sia 1 10.6, mog IVa 10.5, mog IV 11.3, mog III 12.6, mogl I 13.2. 250 mm column retention times: mog V 12.3, sia 1 13.2, mog IVa 13.5, mog IV 14.1, mog III 15.3, mog II 16.2.” for “mM.”
Therefore, variants showing improved function were chosen if they surpassed a yield value >70% by peak area during this first pass evolution.
(§5) 48 variants were selected based on Siamenoside I yields of >70% by peak area for a second pass evaluation. The cell lines were regrown and assayed with both mogroside V and Siamenoside I as substrates, independently.

The nature of data set [6]: RRK loop library variant second pass evaluation, Siamenoside I substrate. As to conditions: Siamenoside I as substrate. The protocol:
as §4
as §2, with “mM. 150 mm column retention times in minutes: mog V 9.5, sia 1 10.6, mog IVa 10.5, mog IV 11.3, mog III 12.6, mogl I 13.2. 250 mm column retention times: mog V 12.3, sia 1 13.2, mog IVa 13.5, mog IV 14.1, mog III 15.3, mog II 16.2.” for “mM.”
as §5

Where a chain is given by its changes, count along the chain named. In names and notes the source's numbering stands. Entries after “also recorded” stand apart in the source; their conditions may differ.

B1: PpAoBG: same acid lactase/β-Galactosidase enzyme as the Maxilact A4, expressed in a Pichia pistoris system (protein, UniProt Q2UCU3 19-1005, looked up)
Beta-galactosidase A: ASIKHRLNGFTILEHPDPAKRDLLQDIVTWDDKSLFINGERIMLFSGEVHPFRLPVPSLWLDIFHKIRALGFNCVSFYIDWALLEGKPGDYRAEGIFALEPFFDAAKEAGIYLIARPGSYINAEVSGGGFPGWLQRVNGTLRSSDEPFLKATDNYIANAAAAVAKAQITNGGPVILYQPENEYSGGCCGVKYPDADYMQYVMDQARKADIVVPFISNDASPSGHNAPGSGTGAVDIYGHDSYPLGFDCANPSVWPEGKLPDNFRTLHLEQSPSTPYSLLEFQAGAFDPWGGPGFEKCYALVNHEFSRVFYRNDLSFGVSTFNLYMTFGGTNWGNLGHPGGYTSYDYGSPITETRNVTREKYSDIKLLANFVKASPSYLTATPRNLTTGVYTDTSDLAVTPLIGDSPGSFFVVRHTDYSSQESTSYKLKLPTSAGNLTIPQLEGTLSLNGRDSKIHVVDYNVSGTNIIYSTAEVFTWKKFDGNKVLVLYGGPKEHHELAIASKSNVTIIEGSDSGIVSTRKGSSVIIGWDVSSTRRIVQVGDLRVFLLDRNSAYNYWVPELPTEGTSPGFSTSKTTASSIIVKAGYLLRGAHLDGADLHLTADFNATTPIEVIGAPTGAKNLFVNGEKASHTVDKNGIWSSEVKYAAPEIKLPGLKDLDWKYLDTLPEIKSSYDDSAWVSADLPKTKNTHRPLDTPTSLYSSDYGFHTGYLIYRGHFVANGKESEFFIRTQGGSAFGSSVWLNETYLGSWTGADYAMDGNSTYKLSQLESGKNYVITVVIDNLGLDENWTVGEETMKNPRGILSYKLSGQDASAITWKLTGNLGGEDYQDKVRGPLNEGGLYAERQGFHQPQPPSESWESGSPLEGLSKPGIGFYTAQFDLDLPKGWDVPLYFNFGNNTQAARAQLYVNGYQYGKFTGNVGPQTSFPVPEGILNYRGTNYVALSLWALESDGAKLGSFELSYTTPVLTGYGNVESPEQPKYEQRKGAY
modifications: expressed in Pichia pastoris
notes: same acid lactase/β-Galactosidase enzyme as the Maxilact A4, expressed in a Pichia pistoris system
B1: in data set [1] (mogV assay, HPLC analysis, 37° C., after 48 hrs), the “Siamenoside I produced” value was roughly 32%. Besides, in data set [2], the “Mog III” value was found to be 12%, the “Mog IV” value is 21%, the “Mog V” value is recorded as 24% and the “Siam I” value was found to be 43%.

B2: D258A, E298A: A. oryzae β-galactosidase double variant D258A, E298A (protein, UniProt Q2UCU3 19-1005, looked up, variant D258A E298A)
Beta-galactosidase A: B1 Beta-galactosidase A with D240A, E280A
In the case of B2, the oNPG result in data set [3] is “INACTIVE”.

B3: E298Q: A. oryzae β-galactosidase variant, E298Q (protein, UniProt Q2UCU3 19-1005, looked up, variant E298Q)
Beta-galactosidase A: B1 Beta-galactosidase A with E280Q
In turn, B3 came in with an oNPG in data set [3] of 5.2 ± 0.1 mAu/min/mg. In data set [1], the “Initial Rate” value was determined as 1.82 µmol/min/mg, the “Reaction Progress” value worked out at 89%, the “Sia 1” value stood at 48% and the “Sia:MogIII” value is reported as 3.7. For the same molecule, the “Sia:MogIV” value in data set [1] was 2.2.

B4: E200Q; E298Q: A. oryzae β-galactosidase double variant E200Q, E298Q (protein, UniProt Q2UCU3 19-1005, looked up, variant E200Q E298Q)
Beta-galactosidase A: B1 Beta-galactosidase A with E182Q, E280Q
Regarding B4, the oNPG result in data set [3] is listed as “INACTIVE”.

B5: ML: acid lactase/β-Galactosidase enzyme preparation from Aspergillus oryzae expressed in Aspergillus niger (protein, UniProt Q2UCU3 19-1005, looked up)
Beta-galactosidase A: B1 Beta-galactosidase A
modifications: enzyme preparation expressed in Aspergillus niger
In the case of B5, in data set [2], the “Mog III” value is listed as 17%, the “Mog IV” value is 12%, the “Mog V” value was found to be 22% and the “Siam I” value amounted to 49%.

B6: E200A; E298A: A. oryzae β-galactosidase double variant E200A, E298A (protein, UniProt Q2UCU3 19-1005, looked up, variant E200A E298A)
Beta-galactosidase A: B1 Beta-galactosidase A with E182A, E280A
In the case of B6, the oNPG result in data set [3] is listed as “INACTIVE”.

B7: E142Q: A. oryzae β-galactosidase variant, E142Q (protein, UniProt Q2UCU3 19-1005, looked up, variant E142Q)
Beta-galactosidase A: B1 Beta-galactosidase A with E124Q
B7 gave an oNPG in data set [3] of 34.6 ± 0.5 mAu/min/mg. For the same molecule, in data set [1], the “Initial Rate” value was 2.05 µmol/min/mg, the “Reaction Progress” value is on record as 88%, the “Sia 1” value was 43% and the “Sia:MogIII” value turned out to be 3.8. Further, the “Sia:MogIV” value in data set [1] came to 2.2.

B8: E298A: A. oryzae β-galactosidase variant, E298A (protein, UniProt Q2UCU3 19-1005, looked up, variant E298A)
Beta-galactosidase A: B1 Beta-galactosidase A with E280A
Molecule B8 returned an oNPG in data set [3] of 6.3 ± 0.1 mAu/min/mg. In data set [1], the “Initial Rate” value was 2.08 µmol/min/mg, the “Reaction Progress” value was 85%, the “Sia 1” value came out at 52% and the “Sia:MogIII” value is listed as 3.5. Further, in data set [1], the “Sia:MogIV” value was found to be 2.1.

B9: E804A: A. oryzae β-galactosidase variant, E804A (protein, UniProt Q2UCU3 19-1005, looked up, variant E804A)
Beta-galactosidase A: B1 Beta-galactosidase A with E786A
Regarding B9, the “effectiveness of Siamenoside I as a substrate in the presence of mogroside V (in words)” value in data set [4] was “reducing the effectiveness of Siamenoside I as a substrate”. The same molecule yielded an oNPG in data set [3] of 34.7 ± 0.4 mAu/min/mg. Also, in data set [1], the “Siamenoside I production/yield from mogroside V (in words)” value is “increased ratio of Siamenoside I production; also recorded: increased Siamenoside I yield”, the “Initial Rate” value worked out at 3.06 µmol/min/mg, the “Reaction Progress” value is 78% and the “Sia 1” value was found to be 62%. In data set [1], the “Sia:MogIII” value stood at 18.6 and the “Sia:MogIV” value is on record as 3.3.

B10: S1 RRK 14: RRK loop library variant, positions 204/205/208: NNE (protein, UniProt Q2UCU3 19-1005, looked up, variant G204N C205N V208E)
Beta-galactosidase A: B1 Beta-galactosidase A with G186N, C187N, V190E
Take B10: in data set [5], the “% Peak Area Siamenoside I” value is 74 % Peak Area and the “Reaction Progress” value is reported as 75. The “Siamenoside I Substrate Evaluation % Peak Area Siamenoside I Left After 72 hr” value in data set [6] came out at 84 % Peak Area.

B11: D258A: A. oryzae β-galactosidase variant, D258A (protein, UniProt Q2UCU3 19-1005, looked up, variant D258A)
Beta-galactosidase A: B1 Beta-galactosidase A with D240A
Regarding B11, the oNPG entry in data set [3] is reported as “INACTIVE”.

B12: E200A: A. oryzae β-galactosidase variant, E200A (protein, UniProt Q2UCU3 19-1005, looked up, variant E200A)
Beta-galactosidase A: B1 Beta-galactosidase A with E182A
As to B12, the oNPG result in data set [3] is “INACTIVE”.

B13: D258Q: A. oryzae β-galactosidase variant, D258Q (protein, UniProt Q2UCU3 19-1005, looked up, variant D258Q)
Beta-galactosidase A: B1 Beta-galactosidase A with D240Q
B13: the oNPG entry in data set [3] is listed as “INACTIVE”.
